The values below come from patent US20220227882A1 (TRUSTEES OF TUFTS COLLEGE, published 2022).

The target of one assay is T1, V459A (Homo sapiens, UniProt P78325).
T1 construct: expressed on HEK293 cells; also called human ADAM8 point mutant V459A
T1 sequence (ADAM8, looked up): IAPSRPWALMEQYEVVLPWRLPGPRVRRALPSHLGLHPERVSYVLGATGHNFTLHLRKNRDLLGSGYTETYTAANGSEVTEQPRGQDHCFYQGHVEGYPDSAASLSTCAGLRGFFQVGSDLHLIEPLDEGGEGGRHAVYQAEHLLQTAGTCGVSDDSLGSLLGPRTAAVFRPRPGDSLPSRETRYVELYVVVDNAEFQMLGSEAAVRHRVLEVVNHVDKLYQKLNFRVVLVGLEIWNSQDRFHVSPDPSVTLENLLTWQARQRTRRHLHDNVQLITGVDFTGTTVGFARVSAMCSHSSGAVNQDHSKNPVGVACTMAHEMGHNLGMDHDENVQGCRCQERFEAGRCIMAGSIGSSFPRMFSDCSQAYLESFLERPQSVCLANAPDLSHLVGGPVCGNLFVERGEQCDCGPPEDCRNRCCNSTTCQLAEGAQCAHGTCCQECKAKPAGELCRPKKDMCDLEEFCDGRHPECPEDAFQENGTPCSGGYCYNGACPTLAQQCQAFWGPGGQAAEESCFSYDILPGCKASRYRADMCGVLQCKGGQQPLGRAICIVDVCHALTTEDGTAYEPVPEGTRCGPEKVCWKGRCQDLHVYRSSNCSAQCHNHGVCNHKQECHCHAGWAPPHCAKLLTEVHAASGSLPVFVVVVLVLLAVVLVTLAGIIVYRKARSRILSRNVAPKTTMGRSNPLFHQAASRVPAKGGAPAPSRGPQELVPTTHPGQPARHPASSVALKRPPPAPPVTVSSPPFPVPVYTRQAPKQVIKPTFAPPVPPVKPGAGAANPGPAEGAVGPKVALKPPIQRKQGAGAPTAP
The experiment in a line: high-throughput flow cytometry, HEK293 cells with mutant ADAM8, high stringency; range in parentheses. The procedure, abridged: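 HEK293 cells expressing WT or alanine-mutant ADAM8 were stained for 60 min with ADP2 Fab (0.50 μg/ml) or ADP13 Fab (5.00 μg/ml) in PBS with 10% goat serum under high-stringency conditions. Detection used an Alexa Fluor 488 secondary, with mean cellular fluorescence measured by high-throughput flow cytometry in duplicate.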

Assay [1] concerns the target T2, Recombinant human ADAM9 (R&D Systems, 939-AD-020) (human, UniProt Q13443 29-697).
T2 sequence (looked up): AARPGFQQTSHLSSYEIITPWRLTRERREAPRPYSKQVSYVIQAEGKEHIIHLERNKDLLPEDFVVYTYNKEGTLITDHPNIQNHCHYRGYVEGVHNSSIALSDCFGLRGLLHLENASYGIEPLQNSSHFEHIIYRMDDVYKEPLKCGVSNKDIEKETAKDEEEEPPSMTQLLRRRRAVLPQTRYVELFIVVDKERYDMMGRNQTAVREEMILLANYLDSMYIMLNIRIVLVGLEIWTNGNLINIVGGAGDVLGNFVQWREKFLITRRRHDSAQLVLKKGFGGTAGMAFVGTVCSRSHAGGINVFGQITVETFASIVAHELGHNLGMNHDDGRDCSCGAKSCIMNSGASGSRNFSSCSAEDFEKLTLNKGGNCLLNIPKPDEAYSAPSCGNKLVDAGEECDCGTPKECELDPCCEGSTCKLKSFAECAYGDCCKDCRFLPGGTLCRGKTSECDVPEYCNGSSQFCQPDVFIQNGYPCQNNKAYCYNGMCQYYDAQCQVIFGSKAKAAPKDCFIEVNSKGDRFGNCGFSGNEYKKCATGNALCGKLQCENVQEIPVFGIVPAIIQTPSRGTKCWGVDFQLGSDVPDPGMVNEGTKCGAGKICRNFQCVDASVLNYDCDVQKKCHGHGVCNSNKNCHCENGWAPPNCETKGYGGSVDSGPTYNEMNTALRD
Description: ELISA, recombinant ADAM9. The procedure:
ELISA assays were also used to test hybridoma clones, subclones and purified ADP antibodies for specificity of ADAM8 binding, i.e., binding to rHuADAM8 (Acro Biosystems, AD8-H5223) was compared to binding to closely related recombinant human ADAM proteins: […], ADAM12 (Acro Biosystems, AD2-H5228) and ADAM15 (Sino Biological, 10517-H08H). For analysis of clones and subclones, 50 μl of cell supernatants were used. A test bleed sample (1:1000) was used as a positive control. Hybridoma culture medium or a pre-bleed serum sample (1:1000) was used as a negative control. Purified mouse ADPs were assessed at 1 μg/ml vs normal mouse IgG and with a test bleed sample as a positive control. ADP binding was detected with a goat anti-mouse IgG (Fc specific)-peroxidase antibody (1:5000, Sigma-Aldrich, A0168).

B1: ADP2 Fab (Fab, V domains shown)
VH: EVKLVESGGGLVQPGGSLSLSCAASGFSFPDYYMSWVRQPPGKALEWLGFIRDSANGYTTEYIASVKGRFTFSRDNSQSILYLQMNALRAEDSATYYCARYSRYYGMDYWGQGTSVTVSS
VL: SIVMTQTPKILLVSAGDRVTITCKASQTVNYDVAWYQQKPGQSPKPVIYFASNRYTGVPDRFTGSGFGTDFTFTISTVQAEDLAVYFCQQDYSAPWTFGGGTKLEIK
For the molecule B1, the “Binding Reactivity (% WT)” value with V459A stood at 55.6 % WT.

B2: ADP3 (antibody, IgG1, V domains shown)
VH: EVKLEESGGGLVQPGGSMKLSCAASGFTFSDAWMDWVRQSPEKGLEWVAEIRGKVNNLATYYVESVKGRFTISRDDSKSSVYLQMNSLRAEDTGIYYCLGRYDATYAMDYWGQGTSVTVSS
VL: DVVMTQTPLSLPVSLGDQASISCRSSQSLVHSDGNTYLHWYLQKPGQSPKLLIYKLSNRFSGVPDRFSGSGSGTDFTLKISRVEAEDLGVYFCSQSTHVPWTFGGGTKLEIK
Consider B2, for which the binding result in assay [1] was “no binding (tested: 1 µg/ml)”.
